Assay results as given in paper PMC5063714 (Journal of medicinal chemistry, 2016).
Read-outs that look alike come from different tables or passages of the source. Blank lines part the entries; values can stand above or below the molecule they belong to. Square brackets hold non-standard residues; d marks the D form. Ends that are not written are not given here. * marks the point of attachment. Lys(Me3) = C[N+](C)(C)CCCC[C@H](N)C(=O)O; diethyl = not defined here; Bz = O=C(c1ccccc1)*

Assays:
Assay in all cases: AlphaScreen or HTRF
[1] = target: chromodomain of CBX8 (human) (UniProt Q9HC52)
chromodomain of CBX7 [2] = target: T1, chromodomain of CBX7 (human, UniProt O95931 8-62)
T1 sequence (looked up): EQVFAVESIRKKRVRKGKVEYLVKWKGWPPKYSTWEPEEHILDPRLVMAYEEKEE

chromodomain of CDYL2 [3] = target: T2, chromodomain of CDYL2 (human, UniProt Q8N8U2 1-75)
T2 sequence (looked up): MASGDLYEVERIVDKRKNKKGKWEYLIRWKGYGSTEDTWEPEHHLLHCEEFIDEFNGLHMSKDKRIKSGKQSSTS

chromodomain of CBX4 [4] = target: T3, chromodomain of CBX4 (human, UniProt O00257-1 8-65)
T3 sequence (looked up): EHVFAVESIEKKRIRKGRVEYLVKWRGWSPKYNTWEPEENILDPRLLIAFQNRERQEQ

chromodomain of CBX5 [5] = target: chromodomain of CBX5 (human)
chromodomain of CBX5 [6] = target: chromodomain of CBX5 (human); remark: listed apart in the source
chromodomain of CBX7 [7] = target: T1, chromodomain of CBX7; remark: listed apart in the source
chromodomain of CBX8 = target: T4, chromodomain of CBX8 (human, UniProt Q9HC52 8-61)
T4 sequence (looked up): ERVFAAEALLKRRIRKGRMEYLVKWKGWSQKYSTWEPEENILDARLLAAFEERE

chromodomain of CDYL2 [8] = target: T2, chromodomain of CDYL2; remark: listed apart in the source
chromodomain of CBX4 [9] = target: T3, chromodomain of CBX4; remark: listed apart in the source
[10] = target: chromodomain of CBX7 (human) (UniProt O95931)
[11] = target: chromodomain of CBX8 (human) (UniProt Q9HC52); remark: listed apart in the source
[12] = target: T5, chromodomain of CDYL2 (human) (UniProt Q8N8U2)
T5 sequence: T2 sequence (looked up)

[13] = target: chromodomain of CBX4 (human) (UniProt O00257)

Chain of chromodomain of CBX5 (human) (Q9UN86 18-75): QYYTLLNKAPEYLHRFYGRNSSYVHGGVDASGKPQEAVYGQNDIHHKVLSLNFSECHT

IC50 (chromodomain of CBX5 [6]): > 60 µM | IC50 (chromodomain of CBX7 [7]): 3.1 µM | IC50 (chromodomain of CBX8): 0.7 µM | IC50 (chromodomain of CDYL2 [8]): 0.75 µM | IC50 (chromodomain of CBX4 [9]): 7.9 µM
B2: compound 43 (peptide)
peptide: {4‑tBu‑Bz}-FVLK(diethyl)S-OMe
modifications: reading uncertain

IC50 (chromodomain of CBX5 [5]): > 60 µM | IC50 [10]: > 60 µM | IC50 [11]: > 60 µM | IC50 [12]: 16 µM | IC50 [13]: > 60 µM
B3: compound 4 (peptide)
peptide: Bz-AL[Lys(Me3)]S-OMe
SMILES: COC(=O)[C@H](CO)NC(=O)[C@H](CCCC[N+](C)(C)C)NC(=O)[C@H](CC(C)C)NC(=O)[C@H](C)NC(=O)c1ccccc1

IC50 (chromodomain of CBX5 [5]): > 60 µM | IC50 [10]: > 60 µM | IC50 [11]: > 60 µM | IC50 [12]: 37 µM | IC50 [13]: > 60 µM
B4: compound 7 (peptide)
peptide: Bz-FAL[Lys(Me3)]
modifications: also: C-terminal R2 = -H in place of -CO-Ser-OMe (no Ser)

Continued, molecule first:

Molecule: compound 1 (UNC3866) (peptide)
IC50 [1]: 1.3 µM

B1: compound 5 (peptide)
peptide: Bz-FAL[Lys(Me3)]S-OMe
IC50 (chromodomain of CBX7 [2]): 2.6 µM | IC50 (chromodomain of CDYL2 [3]): 0.57 µM | IC50 (chromodomain of CBX4 [4]): 6.9 µM | IC50 (chromodomain of CBX5 [5]): 49 µM
